Publication PMC12355757, “TRIM6 ablation reverses ICB resistance in MSS gastric cancer by unleashing cGAS-STING-dependent antitumor immunity” (Journal of Experimental & Clinical Cancer Research : CR, 2025)

Molecular target: T1, Recombinant His-cGAS (human, UniProt Q8N884 1-522)
T1 construct: cGAS cloned into the pET28a plasmid for the GST pull-down; also called purified His-cGAS
Experiment: pull-down; purified His-cGAS incubated with GST, GST-TRIM6 or its truncated mutants on GST-tag resin overnight at 4 °C; 50 mM Tris pH 8.0, 200 mM NaCl, 1 mM EDTA, 1% NP-40, 1 mM DTT, 1 mM MgCl2; immunoblot with anti-His or anti-cGAS
Settings: both partners purified

T1 sequence (Q8N884 whole entry): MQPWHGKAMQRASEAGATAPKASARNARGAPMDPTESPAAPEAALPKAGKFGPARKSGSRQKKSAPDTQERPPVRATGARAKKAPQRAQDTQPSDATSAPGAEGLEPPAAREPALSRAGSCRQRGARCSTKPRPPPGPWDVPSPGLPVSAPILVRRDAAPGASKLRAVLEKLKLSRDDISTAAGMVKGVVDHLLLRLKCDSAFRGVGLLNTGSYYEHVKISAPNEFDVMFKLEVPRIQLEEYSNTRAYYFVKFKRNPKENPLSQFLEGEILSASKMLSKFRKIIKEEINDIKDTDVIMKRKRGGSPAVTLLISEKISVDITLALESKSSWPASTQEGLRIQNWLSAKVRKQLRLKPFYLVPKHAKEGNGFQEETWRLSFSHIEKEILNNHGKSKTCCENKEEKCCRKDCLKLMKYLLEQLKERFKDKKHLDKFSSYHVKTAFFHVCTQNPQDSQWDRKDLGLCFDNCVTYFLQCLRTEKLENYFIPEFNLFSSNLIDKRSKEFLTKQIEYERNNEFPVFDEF

- binding result: binds
B1: GST-TRIM6 (full length) (enzyme, human, UniProt Q9C030-2 1-516, looked up)
chain: MCGSERILQAGNILEIRVGQAGARRVATMTSPVLVDIREEVTCPICLELLTEPLSIDCGHSFCQACITPNGRESVIGQEGERSCPVCQTSYQPGNLRPNRHLANIVRRLREVVLGPGKQLKAVLCADHGEKLQLFCQEDGKVICWLCERSQEHRGHHTFLVEEVAQEYQEKFQESLKKLKNEEQEAEKLTAFIREKKTSWKNQMEPERCRIQTEFNQLRNILDRVEQRELKKLEQEEKKGLRIIEEAENDLVHQTQSLRELISDLERRCQGSTMELLQDVSDVTERSEFWTLRKPEALPTKLRSMFRAPDLKRMLRVCRELTDVQSYWVDVTLNPHTANLNLVLAKNRRQVRFVGAKVSGPSCLEKHYDCSVLGSQHFSSGKHYWEVDVAKKTAWILGVCSNSLGPTFSFNHFAQNHSAYSRYQPQSGYWVIGLQHNHEYRAYEDSSPSLLLSMTVPPRRVGVFLDYEAGTVSFYNVTNHGFPIYTFSKYYFPTTLCPYFNPCNCVIPMTLRRPSS
notes: TRIM6, human, full-length, cloned into the pGEX-6T-1 vector; also called full-length TRIM6
